Data from the supplement of paper PMC11865577.

Legend:
Experiment in all cases: pull-down binding Z-score (relative to library population); higher = stronger binding
[1] = test system: G-clamp-N3 (biotin conjugate); conditions: RNA library: Library-1 (pre-miRNA loops + repeats)
In short: (§1)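 Heat-folded RNA library (1 μg, Cy5 or Cy3 end label, phosphate/NaCl/KCl buffer) was captured for 60 min at 25 °C on streptavidin beads displaying 100 pmol of biotin-conjugated small molecule, then washed three times. The bound fraction, eluted in hot SDS, was hybridised to a DNA barcode microarray at 55.5 °C for 20 h. Z-scores for binding were taken against the library mean and standard deviation after beads-only subtraction and trimmed averaging of replicate barcoded probes.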

[2] = test system: TO-3-N3 (biotin conjugate); conditions: RNA library: Library-2
In short: as §1

[3] = test system: TO-N3-2 (biotin conjugate); conditions: RNA library: Library-2
In short: as §1

TO-N3 (biotin conjugate) = conditions: RNA library: Library-2
In short: as §1

[4] = test system: TO-3-N3-2 (biotin conjugate); conditions: RNA library: Library-2
In short: as §1

Sequence	pull-down binding Z-score [1]	pull-down binding Z-score [2]	pull-down binding Z-score [3]	pull-down binding Z-score (TO-N3 (biotin conjugate))	pull-down binding Z-score [4]
AAAGAGGUGUUUCUACUCCAU [hsa-mir-3690-1_3690-2]	-1.18	-0.497	-0.235	-0.517	-0.0114
AAAGCCAGGGACCCUGAGAGGCUUU [hsa-mir-6885]	3.29	0.0246	1.24	0.556	0.0899
AAAUAAAAGAUGGAGUCGUUUGACGUCUUUUAACACCCUUU [hsa-mir-8055]	-0.175	-0.623	-0.866	-0.706	-0.1
AAAUAAGAGGCUAGGAUUGCCUCUUAUUU [hsa-mir-3201]	0.838	-0.688	-1.57	-1.18	-0.362
AAAUAAGCUCCAUAUCAAUGAGAAUUUCAAUGGGAUUAUGUG [hsa-mir-4791]	-1.06	-0.569	0.0926	-0.415	-0.0328
AAAUAGUUUCUAUCAAAAUAGUUU [hsa-mir-3668]	-1.13	-0.791	-1.14	-0.931	-0.362
AAAUCCCGUUAAUAAGUAAGAGGAUUU [hsa-mir-2113]	0.525	0.503	0.758	0.817	0.143
AAAUCCGUGUUUGGACGCUUCUGGUA [hsa-mir-3936]	-0.453	0.678	0.681	0.923	0.653
AAAUGAGAGUUAGCCAGGAGCUUUGCAUACUCA [hsa-mir-6801]	-1.22	-0.384	0.66	-0.00733	-0.0024
AAAUUGCAGACACUAGGACCAUGUCUUGGUUUUUGCAAUAAUG [hsa-mir-1248]	0.0385	-0.228	-0.641	-0.189	-0.133
AACAACAGCAUCAGAAGCAACAUCAGCUUUAGUU [hsa-mir-569]	-1.03	0.728	1	0.9	0.364
AACACCCAUCCCAGGAUUGCUGAUGGGUGUU [hsa-mir-5705]	-0.7	-0.618	-0.282	-0.668	-0.428
AACAGCAGGAUUGGCUGUAGCUGUU [hsa-mir-2117]	0.593	0.357	0.369	0.185	-0.324
AACAGCUUUGCGAAGUGUUGUU [hsa-mir-4425]	-0.651	0.104	-0.553	-0.113	-0.137
AACAGGACCUGUGCUCACUGGGGCCUGCA [hsa-mir-6797]	-0.344	0.406	1.55	1.02	0.298
AACAUACAUUUGUCUUGGUGUGUU [hsa-mir-4684]	3.35	-1.01	-1.35	-1.44	-0.744
AACGUUAUGUGUGGUCUUUAACCUGUU [hsa-mir-6755]	-1.32	-0.152	-0.171	-0.139	0.16
AACUCCUGCGAGUCCCUGGAGUU [hsa-mir-1258]	0.214	0.16	-0.163	-0.0874	-0.146
AACUCUGUUGAAUAUAAAUUGGAAUU [hsa-mir-367]	-0.214	-0.404	-0.424	-0.572	0.00577

Sequence	pull-down binding Z-score [1]	pull-down binding Z-score [2]	pull-down binding Z-score [3]	pull-down binding Z-score (TO-N3 (biotin conjugate))	pull-down binding Z-score [4]
AACUGUGCGGCCGGCCACACCGUCACACCGGGU [hsa-mir-8083]	-0.324	1.14	1.28	1.44	0.611
AAGACACUAUCUGACAACAACAGGGCUCUU [hsa-mir-550b-2]	0.0423	0.681	0.234	0.93	0.201
AAGACACUAUCUUACAACAACAGGGCUCUU [hsa-mir-550b-1]	0.13	1.17	0.298	1.01	0.281
AAGAGGAGGUGGUUGUUUUCCUCCUCUU [hsa-mir-627]	-0.0833	0.432	1.15	0.944	0.625
AAGAGGUAAGAAGAAGUGAAGCCCUCUU [hsa-mir-4778]	-0.836	-0.393	0.281	-0.292	0.35
AAGCAGGGUCGGGCCUGGUU [hsa-mir-7641-2]	0.553	0.415	0.499	0.442	0.0218
AAGCAGGGUUGGGCCUGGUU [hsa-mir-7641-1]	-1.23	-0.192	0.549	-0.00685	-0.112
AAGCCCUACGAGAAACUGGGGUUUCUGGA [hsa-mir-765]	-1.01	0.529	0.503	0.686	0.277
AAGCUCUUGCAGUAGGUUU [hsa-mir-1206]	0.242	-0.604	-0.369	-0.46	-0.358
AAGCUGACAGACAGCUG [hsa-mir-5691]	1.16	-0.057	0.218	0.144	-0.398
AAGCUGUGUGUGUCCAGC [hsa-mir-4732]	-0.258	0.132	0.52	0.33	-0.101
AAGGCCAGGACCCGCUGACCCAU [hsa-mir-6872]	-1.17	0.148	0.567	0.411	-0.0792
AAGGCCCUUGGGCACCCCAGGCCUU [hsa-mir-5700]	-1.26	0.259	0.656	0.181	-0.081
AAGGCGGGUGGUGCUCAGAUCGCCU [hsa-mir-326]	0.799	-0.0387	0.779	0.274	0.00254
AAGGGUGUAUGAGAGAUCAACCCUU [hsa-mir-5697]	2.33	0.544	1.19	1.07	-0.0393
AAGGUGGAGUUCUGGGUGCUGUUUUCCCACUCU [hsa-mir-378i]	-0.335	0.0547	0.429	0.173	0.299
AAGUAAUUGUUUCUAAUGUACU [hsa-mir-412]	0.96	-0.549	0.583	0.00941	0.0532
AAGUAGUUGGCGUCUUCAGAGACACUU [hsa-mir-643]	-0.0629	0.57	0.0279	0.531	0.0519
AAGUCCGGCUCCAGAACCUGGACACCGCUCAG [hsa-mir-4638]	-1.24	0.52	1.09	0.898	0.379

Sequence	pull-down binding Z-score [1]	pull-down binding Z-score [2]	pull-down binding Z-score [3]	pull-down binding Z-score (TO-N3 (biotin conjugate))	pull-down binding Z-score [4]
AAGUCGAUUUCCAAAAGUGACUU [hsa-mir-3124]	-0.161	-0.856	-1.11	-1.11	-0.588
AAGUGCCGUCCUCAUGAGCCCCU [hsa-mir-6769b]	-0.873	0.296	0.802	0.59	0.181
AAGUGGAGCAGGAAUGCGCUUUUCUCCACUG [hsa-mir-5187]	1.93	0.299	0.231	0.567	0.27
AAGUUCCCUCUGGCUGGAAC [hsa-mir-1249]	-0.433	0.574	0.112	0.559	-0.021
AAUAAAGUAUGUCCACAGCUGAAAGGACAUACUUUAUU [hsa-mir-4464]	-0.77	-0.7	-1.28	-1.18	-0.236
AAUCCCAGCACUUUGGGAG [hsa-mir-3929]	0.566	0.0452	0.171	0.0138	-0.0338
AAUCCCUCUCUUUCUAGUUCUUCCUAGAGUGAGGAAAA [hsa-mir-320b-1]	-1.69	-0.294	-0.55	-0.325	-0.166
AAUGACUCAUAGUCAA [hsa-mir-4475]	-0.88	0.512	-0.666	0.374	-0.157
AAUGCAGUCUGCACCCUGCUGCAUU [hsa-mir-6504]	-0.398	0.237	0.0157	0.0527	-0.145
AAUGCAUAGAAAGCAUU [hsa-mir-4272]	1.58	-0.177	-0.629	-0.421	0.00602
AAUGCUGUGUUUCUGUAUGGUAUU [hsa-mir-92a-1]	-0.453	0.212	-0.268	0.143	-0.22
AAUGUCAGGGCCACCCCUGACCUU [hsa-mir-6837]	0.482	-0.431	-0.497	-0.481	-0.382
AAUUGGCUUUUACAAAAGACCAACU [hsa-mir-4798]	0.914	0.117	-0.6	0.0359	-0.259
AAUUUUCUCUUGUCUAAAAGAAAAGAACG [hsa-mir-521-2]	-0.762	-0.905	-0.765	-0.996	-0.0994
AAUUUUGAUGAGUAUCAUAGGAGAAAAAUU [hsa-mir-363]	1.49	-0.302	0.542	-0.184	0.27
AAUUUUUUUUUAAUUUAAAAAAUU [hsa-mir-3938]	0.843	-0.808	-1.36	-1.13	0.127
ACAAUAUGCUAUUAUAAUCGUAUGGCAUUGU [hsa-mir-2355]	0.228	-0.919	-0.994	-1.18	-0.546
ACAAUUAUGAAAGAAAAGAAAUUGU [hsa-mir-3611]	0.163	-0.386	-0.566	-0.636	0.327
ACACACACCAGACUAUGGAAGCCAGUGU [hsa-mir-147a]	-0.656	-0.455	0.0135	-0.528	-0.471
